According to IntAct's records for PubMed 7538907:

B1: Tumor necrosis factor receptor superfamily member 6 (Homo sapiens), P25445 (parent)
chain: MLGIWTLLPLVLTSVARLSSKSVNAQVTDINSKGLELRKTVTTVETQNLEGLHHDGQFCHKPCPPGERKARDCTVNGDEPDCVPCQEGKEYTDKAHFSSKCRRCRLCDEGHGLEVEINCTRTQNTKCRCKPNFFCNSTVCEHCDPCTKCEHGIIKECTLTSNTKCKEEGSRSNLGWLCLLLLPIPLIVWVKRKEVQKTCRKHRKENQGSHESPTLNPETVAINLSDVDLSKYITTIAGVMTLSQVKGFVRKNGVNEAKIDEIKNDNVQDTAEQKVQLLRNWHQLHGKKEAYDTLIKDLKKANLCTLAEKIQTIILKDITSDSENSNFRNEIQSLV
B2: FAS-associated death domain protein (Homo sapiens), Q13158 (parent)
chain: MDPFLVLLHSVSSSLSSSELTELKFLCLGRVGKRKLERVQSGLDLFSMLLEQNDLEPGHTELLRELLASLRRHDLLRRVDDFEAGAAAGAAPGEEDLCAAFNVICDNVGKDWRRLARQLKVSDTKIDSIEDRYPRNLTERVRESLRIWKNTEKENATVAHLVGALRSCQMNLVADLVQEVQQARDLQNRSGAMSPMSWNSDASTSEAS

Variants of: B1
Details: with fadd_human FADD

Variant | effect of a mutation on the interaction
MLGIWTLLPLVLTSVARLSSKSVNAQVTDINSKGLELRKTVTTVETQNLEGLHHDGQFCHKPCPPGERKARDCTVNGDEPDCVPCQEGKEYTDKAHFSSKCRRCRLCDEGHGLEVEINCTRTQNTKCRCKPNFFCNSTVCEHCDPCTKCEHGIIKECTLTSNTKCKEEGSRSNLGWLCLLLLPIPLIVWVKRKEVQKTCRKHRKENQGSHESPTLNPETVAINLSDVDLSKYITTIAGVMTLSQVKGFVRKNGNNEAKIDEIKNDNVQDTAEQKVQLLRNWHQLHGKKEAYDTLIKDLKKANLCTLAEKIQTIILKDITSDSENSNFRNEIQSLV [V254N] | decreasing interaction

Variants of: B2
Details: with tnr6_human FAS

Variant | effect of a mutation on the interaction
MDPFLVLLHSVSSSLSSSELTELKFLCLGRVGKRKLERVQSGLDLFSMLLEQNDLEPGHTELLRELLASLRRHDLLRRVDDFEAGAAAGAAPGEEDLCAAFNVICDNVGKDWRRLARQLKNSDTKIDSIEDRYPRNLTERVRESLRIWKNTEKENATVAHLVGALRSCQMNLVADLVQEVQQARDLQNRSGAMSPMSWNSDASTSEAS [V121N] | decreasing interaction
